# Laboratory results from patent US20240425876A1 (CHIGENOVO, published 2024).
# Target: the molecule itself
# Experiment: Western blot of transfected HEK293 cells
# Procedure: After 48 hours, the cells were lysed. The C-terminal truncated version containing a flag tag in the cells was enriched by using flag antibody (F1804. Sigma)-coupled magnetic beads, and then the presence of the N-terminal truncated version interacting with the C-terminal truncated version was detected by western blot using an HA antibody (AE036, ABclonal).
protein,measurement,value
"N-terminal truncated version (aa 1-1347) of ABCA4 with an HA tag at its C-terminus (other, Expressed in HEK293 cells from a codon-optimized CDS; tested in cell lysate; also called N1347; not shown: hemagglutinin (HA) tag linked to the C-terminus) MGFVRQIQLLLWKNWTLRKRQKIRFVVELVWPLSLFLVLIWLRNANPLYSHHECHFPNKAMPSAGMLPWLQGIFCNVNNPCFQSPTPGESPGIVSNYNNSILARVYRDFQELLMNAPESQHLGRIWTELHILSQFMDTLRTHPERIAGRGIRIRDILKDEETLTLFLIKNIGLSDSVVYLLINSQVRPEQFAHGVPDLALKDIACSEALLERFIIFSQRRGAKTVRYALCSLSQGTLQWIEDTLYANVDFFKLFRVLPTLLDSRSQGINLRSWGGILSDMSPRIQEFIHRPSMQDLLWVTRPLMQNGGPETFTKLMGILSDLLCGYPEGGGSRVLSFNWYEDNNYKAFLGIDSTRKDPIYSYDRRTTSFCNALIQSLESNPLTKIAWRAAKPLLMGKILYTPDSPAARRILKNANSTFEELEHVRKLVKAWEEVGPQIWYFFDNSTQMNMIRDTLGNPTVKDFLNRQLGEEGITAEAILNFLYKGPRESQADDMANFDWRDIFNITDRTLRLVNQYLECLVLDKFESYNDETQLTQRALSLLEENMFWAGVVFPDMYPWTSSLPPHVKYKIRMDIDVVEKTNKIKDRYWDSGPRADPVEDFRYIWGGFAYLQDMVEQGITRSQVQAEAPVGIYLQQMPYPCFVDDSFMIILNRCFPIFMVLAWIYSVSMTVKSIVLEKELRLKETLKNQGVSNAVIWCTWFLDSFSIMSMSIFLLTIFIMHGRILHYSDPFILFLFLLAFSTATIMLCFLLSTFFSKASLAAACSGVIYFTLYLPHILCFAWQDRMTAELKKAVSLLSPVAFGFGTEYLVRFEEQGLGLQWSNIGNSPTEGDEFSFLLSMQMMLLDAAVYGLLAWYLDQVFPGDYGTPLPWYFLLQESYWLGGEGCSTREERALEKTEPLTEETEDPEHPEGIHDSFFEREHPGWVPGVCVKNLVKIFEPCGRPAVDRLNITFYENQITAFLGHNGAGKTTTLSILTGLLPPTSGTVLVGGRDIETSLDAVRQSLGMCPQHNILFHHLTVAEHMLFYAQLKGKSQEEAQLEMEAMLEDTGLHHKRNEEAQDLSGGMQRKLSVAIAFVGDAKVVILDEPTSGVDPYSRRSIWDLLLKYRSGRTIIMSTHHMDEADLLGDRIAIIAQGRLYCSGTPLFLKNCFGTGLYLTLVRKMKNIQSQRKGSEGTCSCSSKGFSTTCPAHVDDLTPEQVLDGDVNELMDVVLHHVPEAKLVECIGQELIFLLPNKNFKHRAYASLFRELEETLADLGLSSFGISDTPLEEIFLKVTEDSDSGPLFAGGAQQKRENVNPRHPCLGPREKAGQTPQDSNVCSPGAPAAHPEGQPPPEPECPGPQLNTG",binding result,binds
"C-terminal truncated version (aa 1348-2273) of ABCA4 with a Flag tag at its C-terminus (other, Expressed in HEK293 cells; captured on flag antibody-coupled magnetic beads; not shown: Flag tag linked to the C-terminus) TQLVLQHVQALLVKRFQHTIRSHKDFLAQIVLPATFVFLALMLSIVIPPFGEYPALTLHPWIYGQQYTFFSMDEPGSEQFTVLADVLLNKPGFGNRCLKEGWLPEYPCGNSTPWKTPSVSPNITQLFQKQKWTQVNPSPSCRCSTREKLTMLPECPEGAGGLPPPQRTQRSTEILQDLTDRNISDFLVKTYPALIRSSLKSKFWVNEQRYGGISIGGKLPVVPITGEALVGFLSDLGRIMNVSGGPITREASKEIPDFLKHLETEDNIKVWFNNKGWHALVSFLNVAHNAILRASLPKDRSPEEYGITVISQPLNLTKEQLSEITVLTTSVDAVVAICVIFSMSFVPASFVLYLIQERVNKSKHLQFISGVSPTTYWVTNFLWDIMNYSVSAGLVVGIFIGFQKKAYTSPENLPALVALLLLYGWAVIPMMYPASFLFDVPSTAYVALSCANLFIGINSSAITFILELFENNRTLLRFNAVLRKLLIVFPHFCLGRGLIDLALSQAVTDVYARFGEEHSANPFHWDLIGKNLFAMVVEGVVYFLLTLLVQRHFFLSQWIAEPTKEPIVDEDDDVAEERQRIITGGNKTDILRLHELTKIYPGTSSPAVDRLCVGVRPGECFGLLGVNGAGKTTTFKMLTGDTTVTSGDATVAGKSILTNISEVHQNMGYCPQFDAIDELLTGREHLYLYARLRGVPAEEIEKVANWSIKSLGLTVYADCLAGTYSGGNKRKLSTAIALIGCPPLVLLDEPTTGMDPQARRMLWNVIVSIIREGRAVVLTSHSMEECEALCTRLAIMVKGAFRCMGTIQHLKSKFGDGYIVTMKIKSPKDDLLPDLNPVEQFFQGNFPGSVQRERHYNMLQFQVSSSSLARIFQLLLSHKDSLLIEEYSVTQTTLDQVFVNFAKQQTESHDLPLHPRAAGASRQAQD",binding result,binds
